According to patent US5145783A, “Glyphosate-tolerant 5-endolpyruvyl-3-phosphoshikimate synthase” (Monsanto Company, priority 1990, dated 1992):

Biological target: T1, wild-type EPSP synthase of tomato (Solanum lycopersicum, UniProt P10748)
T1 construct: ATG translational initiation codon at the site predicted to be the start of the mature enzyme for in vitro expression in E. Coli; initiator methionine (ATG in an engineered NcoI site) (N); made in house; host or cells: E. coli SR481 (aroA mutant) harboring pMON9719, desalted cell extract
Assay: EPSP synthase activity assay, extracts of E. coli SR481 harboring pMON9719
Format: biochemical
Settings: cells containing pMON9719, no glyphosate
Method: E. coli SR481 cells harboring pMON9719 or pMON9729 were grown under conditions which induce the expression of the RecA promoter. The cells were lysed and the extracts were assayed for EPSP synthase activity.
Specifically, the bacterial cell paste was washed twice with 0.9% saline, suspended in buffer (100 mM Tris-HCl, 5 mM dithiothreitol, 1 mM EDTA, 10% glycerol and 1 mM benzamidine HCl) passed twice through the French Pressure Cell at 1000 psi. The cell abstract was separated from the cells by centrifuging at 15,000×gravity for 10 mins. at 5° C. It was desalted using Sephadex G-50 (Pharmacia, Piscataway, N.J.). The desalted extract was assayed for EPSP synthase activity as follows:
To an assay mix (40 μl) containing shikimate-3-phosphate (2 mM), ^14 C-phosphoenolpyruvate (1 mM, 1.2 mCi/mmol), ammonium molybdate (0.1 mM), potassium fluoride (5 mM), in 50 mM HEPES-KOH, pH 7, was added 10 μl of the extract and incubated at 25° C. for 2 mins. […] The radioactivity of the eluent was monitored using a Radiometric Flo-One Beta Instrument. […] The EPSP synthase activity was determined by measurement of the conversion of ^14 C-PEP to ^14 […], both of which are resolved under the above conditions of chromatography. The protein content of the extract was determined by the method of Bradford (Biorad Labs, Calif.). […]

B1: pMON9719: wild-type EPSP synthase of tomato expressed in E. coli SR481 under the recA promoter, cell extract (protein, UniProt P10748 77-520, looked up)
3-phosphoshikimate …: KPHEIVLXPIKDISGTVKLPGSKSLSNRILLLAALSEGRTVVDNLLSSDDIHYMLGALKTLGLHVEDDNENQRAIVEGCGGQFPVGKKSEEEIQLFLGNAGTAMRPLTAAVTVAGGHSRYVLDGVPRMRERPIGDLVDGLKQLGAEVDCSLGTNCPPVRIVSKGGLPGGKVKLSGSISSQYLTALLMAAPLALGDVEIEIIDKLISVPYVEMTLKLMERFGVFVEHSSGWDRFLVKGGQKYKSPGKAFVEGDASSASYFLAGAAVTGGTVTVEGCGTSSLQGDVKFAEVLEKMGAEVTWTENSVTVKGPPRNSSGMKHLRAIDVNMNKMPDVAMTLAVVALFADGPTTIRDVASWRVKETERMIAICTELRKLGATVVEGSDYCIITPPEKLNVTEIDTYDDHRMAMAFSLAACADVPVTIKNPGCTRKTFPDYFEVLQKYSKH
modifications: X: residue not identified in the source
notes: wild-type EPSP synthase of tomato expressed in E. coli SR481 under the recA promoter, cell extract
EPSP synthase activity (specific activity of the extract): about 1600 nanomoles of EPSP synthase formed/minute/mg protein
